{"source": "paper PMC7676268", "target": "SARS-CoV-2 glycoprotein S (SARS-CoV-2) (UniProt P0DTC2)", "assay": "cryo-EM structure; in situ cryo-electron tomography on cryo-FIB milled lamellae of chemically fixed infected cells; subtomogram average of 219 S trimers from six tomograms of intracellular virions; C3 symmetry applied after it was revealed without being imposed", "data": [{"substance": "SARS-CoV-2 glycoprotein S (from UniProt P0DTC2 14-1273) (natural protein)", "values": [{"measurement": "stoichiometry N", "result": 3}]}]}
